Test results taken from article PMC4931470.

Assays:
E22P-Aβ42 dimer = assay: SEC; Superdex75 10/300GL, PBS pH 7.4, 0.6 mL/min; Aβ solution 25 μM incubated at 37 °C for the indicated duration, supernatant after centrifugation (17,860 x g, 4 °C, 10 min) analysed; dextran standards
E22P-Aβ42 = assay: as above

Substance | stoichiometry N (E22P-Aβ42 dimer) | stoichiometry N (E22P-Aβ42)
E22P-Aβ42 dimer (peptide) | 6 to 8 | 
E22P-Aβ42 (peptide) |  | 6 to 8
